“Also recorded” adds a separate entry of the source. Where only a bound is given, the exact number is not on record here.

These results are taken from patent US20210130420A1, “RECOMBINANT BINDING PROTEINS TARGETING HER2 AND SERUM ALBUMIN, AND THEIR USES” (Molecular Partners AG, priority 2016, published 2021).

The test system of series [1] is BT474 human breast carcinoma cells. As to the kind of experiment: BT474 breast cancer tumor xenograft mouse model. In kind it is in vivo. Here is the method: Protein #21-His, Protein #23-His, Protein #24-His, Protein #25-His were expressed and purified as described in Example 1. […] BT474 breast cancer tumor xenograft mouse models were essentially performed as follows using procedures well known to the person skilled in the art: BT474 human breast carcinoma cells were cultured, resuspended, and 2*10^7 cells in 200 μl RPMI 1640 medium containing 50:50 matrigel (BD Biosciences) per mouse were injected into the right flank of female Balb/c nude mice. […] Tumor volumes were measured for 32 days.
In a similar study using BT474 cells (identical setup and procedure; all 35 mg/kg doses), Protein #21-His was compared to Protein #23-His, Protein #24-His, and Protein #25-His.

Series [2] is described as follows: Pharmacokinetic analysis in cynomolgus monkey. In kind it is in vivo. Here is the method: The measurements shown in this example are the result of a half-life engineering effort as described in Example 11. Protein #21-His, Protein #23-His, and Protein #24-His were expressed and purified as described in Example 1. The pharmacokinetic properties of the proteins were assessed in cynomolgus monkey. Proteins were administered via intravenous infusion for 30 min at a target dose level of between 1 mg/kg to cynomolgus monkeys. Blood samples were collected pre-dose and again at selected time points, for example 5 min, 10 min, 0.5 hours, 1 hour, 2 hours, 4 hours, 8 hours, 12 hours, 24 hours, 48 hours, 72 hours, 96 hours, 120 hours, 144 hours, 168 hours, 192 hours, 216 hours, and 240 hours post-end of infusion (i.e. post-injection). The blood samples were allowed to stand at room temperature and were centrifuged to generate serum, followed by storage at −80° C. pending analyses. Pharmacokinetic parameters were determined using procedures well known to the person skilled in the art. Serum concentrations of proteins were determined by sandwich ELISA using a rabbit monoclonal anti-designed ankyrin repeat domain antibody as capture reagent and murine monoclonal anti-designed ankyrin repeat domain antibody as detection reagent, and using a standard curve. Pharmacokinetic parameters were determined using standard software such as Phoenix WinNonLin (Certara, Princeton, USA) or Graph Pad Prism (GraphPad Software, La Jolla, USA) and standard analyses such as non-compartmental analyses. […] Target mediated clearance is well-known to the person skilled in the art and is known from e.g. antibodies targeting HER2.
Similarly, Protein #21-His was expressed and purified as described in Example 1. The pharmacokinetic properties of the proteins were assessed in cynomolgus monkey as described above at 1 mg/kg, 5 mg/kg and 10 mg/kg.
Similar results are observed when testing Protein #21 (expressed and purified as described in Example 1). The pharmacokinetic properties of the proteins are assessed in cynomolgus monkey as described above at 1 mg/kg, 10 mg/kg and 100 mg/kg. Pharmacokinetic parameters are evaluated as described above.
(§1) For the studies in this example Protein #21-His, Protein #24-His, Protein #28-His, Protein #29-His, and Protein #30-His were prepared according to Example 1. Protein #28-His was additionally PEGylated using a 40 kDa PEG moiety (NOF Sunbright GL2-400MA) by maleimid coupling of the PEG-moiety onto the free C-terminal cysteine of Protein #28-His, followed by purification to homogeneity using standard purification methods, procedures well known to the person skilled in the art. Pharmacokinetic analyses in mouse or cynomolgus monkey were performed as described in Examples 8 and 9.

Series [3] in a line: Pharmacokinetic analysis in mouse. The series is classed as in vivo. Here is the method:
The measurements shown in this example are the result of a half-life engineering effort as described in Example 11. Protein #21-His and Protein #23-His were expressed and purified as described in Example 1. The pharmacokinetic properties of the His-tagged proteins were assessed in mouse as described elsewhere (Zahnd, C., Kawe, M., Stumpp, M. T., de Pasquale, C., Tamaskovic, R., Nagy-Davidescu, G., Dreier, B., Schibli, R., Binz, H. K., Waibel, R., Plückthun, A., Cancer Res. 70, 1595-1605, 2010). […] Having SEQ ID NO: 16 present in the recombinant binding protein thus appears to be more favorable than having SEQ ID NO: 18 present.
Polypeptide linkers that link protein domains are well-known to the person skilled in the art. Gly-Ser-rich linkers are well-known from single-chain Fv antibody fragments, where they have proven to be most appropriate to link the two Fv polypeptide chains. […] Protein #26-His and Protein #27-His, were expressed and purified as described in Example 1. Pharmacokinetic analyses in mouse were performed as described in Example 8.
as §1

The nature of series [4]: Thermal unfolding, midpoint of thermal denaturation. In kind it is physicochemical. The note with it: pH 6.0. An excerpt: Degradation may for example occur in the vicinity of any one of the 5 asparagines (including asparagine-glycine dipeptides), 13 aspartates, or 10 glycines of SEQ ID NO: 13, amongst additional potential degradation sites. SEQ ID NO: 13 further comprises a number of potential oxidation sites. […] When mutating aspartate at position 80 of SEQ ID NO: 13 to glutamate, a functional designed ankyrin repeat domain with binding specificity for serum albumin was generated, corresponding to SEQ ID NO: 14, which does show a marked improvement in storage stability (Example 3; FIGS. 2A and 2B).

Series [5] in a line: Storage stability in PBS analysed by SDS-PAGE. The series is classed as physicochemical. Here is the method: “Improved storage stability” in the context of the present invention means the reduction of the amounts of a degradation band, preferably the reduction of the amount of degradation products, as detected by a Coomassie-stained SDS-PAGE occurring after storage at 40° C. for 1 month at 10 mg/ml in PBS, by at least 5%, 10%, 15%, 20%, 25%, 30%, 35%, 40%, 45%, 50%, or 50%. Methods to assess storage stability by SDS-PAGE are well known to the person skilled in the art. Examples of designed ankyrin repeat domains and recombinant binding proteins with improved storage stability properties are given in Examples 2 and 3.
Protein #13-His, Protein #14-His and Protein #15-His were prepared as described in Example 1, and samples were concentrated to 10 mg/ml in PBS. Protein #14-His and Protein #15-His where then stored for 1 month at −80° C. or at 40° C. in glass vials, followed by analysis on SDS 15% PAGE. […] These findings illustrate that Protein #14-His has improved storage stability compared to Proteins #13-His and Protein #15-His.
A storage stability improvement is also observed, when testing the storage stability of Protein #21 and Protein #22 (recombinant binding proteins consisting of the amino acid sequences corresponding to SEQ ID NOs: 21 and 22, respectively). Protein #21 and Protein #22 are prepared as described in Example 1, samples are concentrated to 10 mg/ml in PBS and stored for 1 month at −80° C. in or at 40° C. in glass vials, followed by analysis on standard size-exclusion chromatography.

B1: Protein #21-His: SEQ ID NO: 21 with a His-tag (SEQ ID NO: 1) fused to its N terminus (protein)
chain: MRGSHHHHHHGSDLGKKLLEAARAGQDDEVRELLKAGADVNAKDYFSHTPLHLAARNGHLKIVEVLLKAGADVNAKDFAGKTPLHLAANEGHLEIVEVLLKAGADVNAQDIFGKTPADIAADAGHEDIAEVLQKAAGSPTPTPTTPTPTPTTPTPTPTGSDLGIKLLFAAAKGQDDEVRELLKAGADVNAKDFQGVTPLHIAAQSGHLEIVEVLLKAGADVNAKDVTGDTPLHLAAQHGHLEIVEVLLKAGADVNAQDERGWTPADLAADWGHEDIAEVLQKAAGSPTPTPTTPTPTPTTPTPTPTGSDLGKKLLEAARAGQDDEVRELLKAGADVNAKDEYGLTPLYLATAHGHLEIVEVLLKAGADVNAVDAIGFTPLHLAAFIGHLEIAEVLLKAGADVNAQDKFGKTPADIAAGAGNEDIAEVLQKAAGSPTPTPTTPTPTPTTPTPTPTGSDLGKKLLEAARAGQDDEVRELLKAGADVNAKDYFSHTPLHLAARNGHLKIVEVLLKAGADVNAKDFAGKTPLHLAANEGHLEIVEVLLKAGADVNAQDIFGKTPADIAADAGHEDIAEVLQKAA
modifications: Protein comprising four designed ankyrin repeat domains
B1: in series [1] (Protein #21-His 35 mg/kg, Trastuzumab 10 mg/kg, i.v. Q3Dx7, tumor volumes measured for 32 days, FIG. 4A), the “inhibition of tumor growth” value is reported as “more efficacious in inhibiting tumor growth than Trastuzumab”. In addition, the “tumor suppression compared to Protein #24-His” value in series [1] (after 32 days of treatment, FIG. 4B) is given as “significantly better tumor suppression than Protein #24-His”. Also, the “tumor suppression compared to other recombinant binding proteins” value in series [1] (all 35 mg/kg doses, day 18 of treatment, FIG. 4B) is on record as “more efficacious in suppressing tumors than Protein #23-His, Protein #24-His, or Protein #25-His; also recorded: significantly more efficacious in inhibiting tumor growth than Protein #24-His”. The “concentration below which target-mediated clearance is observed” value in series [2] is “below 100 nM”. The molecule also returned a terminal half-life in series [2] (1 mg/kg, intravenous infusion) of 47 h. Further, in series [3], the “% ID remaining after 48 hours” value was determined as 19.5 % ID and the terminal half-life is 30.4 h.

B2: Protein #14-His: SEQ ID NO: 14 with a His-tag; stability-improved serum albumin binding designed ankyrin repeat domain, aspartate 80 of SEQ ID NO: 13 mutated to glutamate (protein)
chain: GSDLGKKLLEAARAGQDDEVRELLKAGADVNAKDYFSHTPLHLAARNGHLKIVEVLLKAGADVNAKDFAGKTPLHLAANEGHLEIVEVLLKAGADVNAQDIFGKTPADIAADAGHEDIAEVLQKAA
modifications: His-tag; Designed ankyrin repeat domain
Consider B2, for which, in series [4], the “midpoint of thermal denaturation Tm” value came to 89.5 °C. Besides, the “stability upon storage at −80° C.” value in series [5] (10 mg/ml in PBS, 1 month at −80° C., SDS 15% PAGE) is “equivalent stability”. The “reduction of degradation products compared to Protein #15-His” value in series [5] (10 mg/ml in PBS, glass vials, 1 month at 40° C., SDS 15% PAGE) was greater than 50%. Moreover, the “reduction of degradation products compared to Protein #13-His” value in series [5] (10 mg/ml in PBS, one week at 40° C., SDS 15% PAGE) is on record as greater than 50%; in series [5] (10 mg/ml in PBS, one week at 60° C., SDS 15% PAGE), greater than 50%.

B3: Protein #13-His: SEQ ID NO: 13 with a His-tag; designed ankyrin repeat domain with binding specificity for serum albumin (WO2012/069654) (protein)
chain: GSDLGKKLLEAARAGQDDEVRELLKAGADVNAKDYFSHTPLHLAARNGHLKIVEVLLKAGADVNAKDFAGKTPLHLAANDGHLEIVEVLLKAGADVNAQDIFGKTPADIAADAGHEDIAEVLQKAA
modifications: His-tag; Designed ankyrin repeat domain
As for B3, the “midpoint of thermal denaturation Tm” value in series [4] is 86 °C. In addition, the “degradation upon prolonged incubation” value in series [5] (in PBS at 10 mg/ml at 40° C.) is given as “degrade”.
